Article PMC4357719, “Roles of Rad51 paralogs for promoting homologous recombination in Leishmania infantum”

How the values were obtained:
Assay in all cases: competition EMSA; preferred substrate in mixture; 25 mM MOPS pH 7.0, 0.2% Tween-20, 1 mM CaCl2, 2 mM DTT; 25 nM 32P-DNA; 37 C 10 min, then 0.2% glutaraldehyde 15 min; 8% TBE acrylamide gel
Conditions in all cases: protein: recombinant; tags: C-terminal 10xHis; N-terminal GST cleaved with PreScission; label: 32P on strand 3 (JYM1745); D-loop: 1:2 with unpaired bubble, 3 paired to 2 in the bubble
LiRad51-6 = target: T1, LiRad51-6 (Leishmania infantum, UniProt A4I499 1-649)
T1 sequence: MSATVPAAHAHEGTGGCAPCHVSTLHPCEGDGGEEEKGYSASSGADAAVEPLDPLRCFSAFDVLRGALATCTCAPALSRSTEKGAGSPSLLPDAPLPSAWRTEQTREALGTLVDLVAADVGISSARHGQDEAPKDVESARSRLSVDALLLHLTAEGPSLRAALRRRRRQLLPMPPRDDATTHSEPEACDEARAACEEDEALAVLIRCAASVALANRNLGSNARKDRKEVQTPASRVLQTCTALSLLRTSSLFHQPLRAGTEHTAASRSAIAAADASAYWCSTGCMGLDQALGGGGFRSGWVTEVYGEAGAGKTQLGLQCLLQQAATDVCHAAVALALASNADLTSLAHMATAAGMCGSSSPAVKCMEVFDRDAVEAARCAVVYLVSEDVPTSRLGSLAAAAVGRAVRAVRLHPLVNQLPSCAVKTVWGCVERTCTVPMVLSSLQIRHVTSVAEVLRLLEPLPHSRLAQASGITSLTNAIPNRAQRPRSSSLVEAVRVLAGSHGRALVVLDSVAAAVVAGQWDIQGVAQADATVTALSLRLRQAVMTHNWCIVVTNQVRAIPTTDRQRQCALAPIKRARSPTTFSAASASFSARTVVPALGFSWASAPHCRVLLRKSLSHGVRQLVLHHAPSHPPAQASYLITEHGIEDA

LiRad51-4 = target: T2, LiRad51-4 (Leishmania infantum, UniProt A4HUT5 1-518)
T2 sequence: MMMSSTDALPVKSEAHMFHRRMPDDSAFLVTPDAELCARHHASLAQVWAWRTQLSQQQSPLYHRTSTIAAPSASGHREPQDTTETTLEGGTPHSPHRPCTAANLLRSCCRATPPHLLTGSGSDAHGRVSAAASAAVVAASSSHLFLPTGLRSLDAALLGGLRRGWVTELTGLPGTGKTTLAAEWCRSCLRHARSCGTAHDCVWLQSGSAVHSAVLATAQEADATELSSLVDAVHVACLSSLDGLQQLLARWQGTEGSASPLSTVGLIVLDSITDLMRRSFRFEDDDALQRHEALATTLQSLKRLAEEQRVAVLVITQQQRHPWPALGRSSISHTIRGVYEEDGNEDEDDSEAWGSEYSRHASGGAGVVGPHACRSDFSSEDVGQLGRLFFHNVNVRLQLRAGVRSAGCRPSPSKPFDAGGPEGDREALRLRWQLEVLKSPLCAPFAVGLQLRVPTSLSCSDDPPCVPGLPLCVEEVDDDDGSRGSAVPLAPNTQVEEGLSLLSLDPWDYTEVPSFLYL

LiRad51-3 = target: T3, LiRad51-3 (Leishmania infantum, UniProt E9AHR7 1-687)
T3 sequence: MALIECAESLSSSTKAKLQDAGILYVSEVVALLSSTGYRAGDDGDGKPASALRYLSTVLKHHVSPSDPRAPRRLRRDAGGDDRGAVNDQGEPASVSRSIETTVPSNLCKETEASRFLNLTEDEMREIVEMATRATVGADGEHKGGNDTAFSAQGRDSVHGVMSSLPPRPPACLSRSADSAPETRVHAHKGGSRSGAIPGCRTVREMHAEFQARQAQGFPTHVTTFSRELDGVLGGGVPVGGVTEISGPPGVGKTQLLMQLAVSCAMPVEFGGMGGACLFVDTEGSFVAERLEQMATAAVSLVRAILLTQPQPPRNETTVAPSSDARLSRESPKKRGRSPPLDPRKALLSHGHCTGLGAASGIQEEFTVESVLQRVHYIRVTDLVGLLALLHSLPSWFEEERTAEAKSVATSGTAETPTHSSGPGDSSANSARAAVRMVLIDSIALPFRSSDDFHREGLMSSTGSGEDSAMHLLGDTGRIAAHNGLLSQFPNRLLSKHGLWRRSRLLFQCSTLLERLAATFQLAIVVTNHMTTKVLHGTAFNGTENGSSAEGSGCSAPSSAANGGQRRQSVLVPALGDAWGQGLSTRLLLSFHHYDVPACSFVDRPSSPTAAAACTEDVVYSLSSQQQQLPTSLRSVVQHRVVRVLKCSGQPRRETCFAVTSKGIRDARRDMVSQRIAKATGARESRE

Measured: binding result

B1: D-loop (JYM1395/JYM1396/JYM1745) (structured_DNA)
DNA 1: GCCAGGGACGGGGTGAACCTGCAGGTGGGCGGCTGCTCATCGTAGGTTAGTATCGACCTATTGGTAGAATTCGGCAGCGTCATGCGACGGC
DNA 2: GCCGTCGCATGACGCTGCCGAATTCTACCACGCTACTAGGGTGCCTTGCTAGGACATCTTTGCCCACCTGCAGGTTCACCCCGTCCCTGGC
DNA 3: AAGATGTCCTAGCAAGGCACCCTAGTAGC
binds: LiRad51-6 | LiRad51-4 | LiRad51-3
